Consider one molecule from PMC9638876 (EMBO Reports, 2022).

In the test the target is GST-tagged Gcn4 (transcription factor Gcn4) (S. cerevisiae, UniProt P03069 1-281). Put plainly: pull-down.
GST-tagged Gcn4 (transcription factor Gcn4), sequence (P03069 whole entry): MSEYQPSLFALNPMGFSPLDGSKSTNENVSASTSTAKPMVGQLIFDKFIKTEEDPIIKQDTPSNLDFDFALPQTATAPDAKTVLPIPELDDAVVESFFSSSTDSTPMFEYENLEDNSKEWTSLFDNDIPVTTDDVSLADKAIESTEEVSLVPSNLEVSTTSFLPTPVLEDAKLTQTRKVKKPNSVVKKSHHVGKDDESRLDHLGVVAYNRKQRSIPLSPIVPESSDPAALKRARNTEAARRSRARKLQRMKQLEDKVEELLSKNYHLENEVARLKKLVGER

B1: His-tagged Rpb9 (RNA polymerase II subunit Rpb9) (natural protein, S. cerevisiae, UniProt P27999 1-122, looked up)
chain: MTTFRFCRDCNNMLYPREDKENNRLLFECRTCSYVEEAGSPLVYRHELITNIGETAGVVQDIGSDPTLPRSDRECPKCHSRENVFFQSQQRRKDTSMVLFFVCLSCSHIFTSDQKNKRTQFS
Take B1: the binding result is recorded as “binds”.
